Assay results published in the supplement of paper PMC9233669.
Fewer inactive variants are shown than the library holds.

Legend:
[1] = system: biotinyl-Trp-oxazolone; test: self-aminoacylation, catalytic enhancement (BWO) (fold over background); higher = more active; k-Seq, kA / k0A0; sequences stand for … in GGGAAUGGAUCCACAUCUACGAAUUC…UUCACUGCAGACUUGACGAAGCUG
Method in brief: (§1)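 Working in 50 μL HEPES/NaCl/KCl/MgCl2/CaCl2 buffer with 5% acetonitrile at pH 6.9–7.0, mutagenized RNA pools (0.43 μM; 21-nt variable region) were reacted with 2–1250 μM of each biotinyl-aminoacyl-oxazolone for 90 minutes at room temperature. Streptavidin capture followed, with quantification by triplicate qPCR and Illumina sequencing. Catalytic enhancement is reported as median kA over the uncatalyzed rate, the low-activity peak of a bimodal Gaussian fit to the data.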

[2] = system: biotinyl-Met-oxazolone; test: self-aminoacylation, catalytic enhancement (BMO) (fold over background); higher = more active; k-Seq, kA / k0A0; sequences stand for … in GGGAAUGGAUCCACAUCUACGAAUUC…UUCACUGCAGACUUGACGAAGCUG
Method in brief: as §1

[3] = system: biotinyl-Ile-oxazolone; test: self-aminoacylation, catalytic enhancement (BIO) (fold over background); higher = more active; k-Seq, kA / k0A0; sequences stand for … in GGGAAUGGAUCCACAUCUACGAAUUC…UUCACUGCAGACUUGACGAAGCUG
Method in brief: as §1

[4] = system: biotinyl-Leu-oxazolone; test: self-aminoacylation, catalytic enhancement (BLO) (fold over background); higher = more active; k-Seq, kA / k0A0; sequences stand for … in GGGAAUGGAUCCACAUCUACGAAUUC…UUCACUGCAGACUUGACGAAGCUG
Method in brief: as §1

[5] = system: biotinyl-Phe-oxazolone; test: self-aminoacylation, catalytic enhancement (BFO) (fold over background); higher = more active; k-Seq, kA / k0A0; sequences stand for … in GGGAAUGGAUCCACAUCUACGAAUUC…UUCACUGCAGACUUGACGAAGCUG
Method in brief: as §1

[6] = system: biotinyl-Val-oxazolone; test: self-aminoacylation, catalytic enhancement (BVO) (fold over background); higher = more active; k-Seq, kA / k0A0; sequences stand for … in GGGAAUGGAUCCACAUCUACGAAUUC…UUCACUGCAGACUUGACGAAGCUG
Method in brief: as §1

Sequence | self-aminoacylation [1] | self-aminoacylation [2] | self-aminoacylation [3] | self-aminoacylation [4] | self-aminoacylation [5] | self-aminoacylation [6]
AAAUUCGCUAAUAGUCGCAAG [Fam3.1 aminoacylation ribozyme variant] | 2.09 | 2.31 | 2.89 | 2.19 | 2.65 | –
AAAUUUGCAAAUAGUCGCAAG [Fam3.1 aminoacylation ribozyme variant] | 1.82 | 1.35 | 1.9 | 1.82 | 2.27 | 1.37
AAAUUUGCCAAUAGUCGCAAG [Fam3.1 aminoacylation ribozyme variant] | 2.14 | 1.69 | 1.77 | 1.76 | 2.17 | 1.65
AAAUUUGCUAAUAGUCCCAAG [Fam3.1 aminoacylation ribozyme variant] | 0.979 | 0.644 | 1.24 | 0.923 | 1.68 | 1.03
AAAUUUGCUAAUAGUCGCACG [Fam3.1 aminoacylation ribozyme variant] | 1.81 | 1.38 | 1.58 | 1.42 | 1.47 | 1.72
AAAUUUGCUAAUAGUCGCCAG [Fam3.1 aminoacylation ribozyme variant] | 2.92 | 1.75 | 2.08 | 1.67 | 4.62 | 2.15
AAAUUUGCUAAUAGUCGCGAG [Fam3.1 aminoacylation ribozyme variant] | 2.48 | 2.44 | 2.12 | 2.53 | 1.34 | 1.76
AAAUUUGCUAAUAGUUGCAAG [Fam3.1 aminoacylation ribozyme variant] | 1.71 | 1.24 | 1.61 | 1.08 | 1.44 | 1.21
AAAUUUGCUCAUAGUCGCAAG [Fam3.1 aminoacylation ribozyme variant] | 1.56 | 2.13 | 1.76 | 1.55 | 2.13 | 1.57
AAAUUUGCUUAUAGUCGCAAG [Fam3.1 aminoacylation ribozyme variant] | 2.14 | 1.91 | 2.26 | 1.93 | 2.37 | 1.59
AAAUUUUCUAAUAGUCGCAAG [Fam3.1 aminoacylation ribozyme variant] | – | – | 2.15 | 2.46 | 2.42 | 2.11
AACUUAGCUAAUAGUCGCAAG [Fam3.1 aminoacylation ribozyme variant] | – | 2.42 | 2.2 | 3.27 | 2.75 | –
AACUUUGCUAACAGUCGCAAG [Fam3.1 aminoacylation ribozyme variant] | 2.08 | 2.15 | 2.17 | 3.43 | 2.06 | –
AACUUUGCUAAUAGUCGCAAC [Fam3.1 aminoacylation ribozyme variant] | 2.59 | – | 2.22 | 2.16 | 4.1 | –
AACUUUGCUAAUAGUCGCAAG [Fam3.1 aminoacylation ribozyme variant] | 2.41 | 2.2 | 2.22 | 2.46 | 3.71 | –
AACUUUGCUAAUAGUCGCACG [Fam3.1 aminoacylation ribozyme variant] | 3.12 | – | 2.49 | 2.15 | 3.22 | 2.05
AAGCGUGCUAAUAGUCGCAAG [Fam3.1 aminoacylation ribozyme variant] | 2.33 | 2.62 | 2.02 | – | 4.08 | 2.05
AAGUUGGCUAAAAGUCGCAAG [Fam3.1 aminoacylation ribozyme variant] | – | – | 2.01 | – | 3.1 | –
AAGUUUCCUAAUAGUCGCAGG [Fam3.1 aminoacylation ribozyme variant] | – | 2.16 | 2.09 | 2.06 | 11.8 | –
AAGUUUGCUAAUAUUCGCGAG [Fam3.1 aminoacylation ribozyme variant] | 3.31 | 2.02 | 2.04 | – | 16.5 | –
AAGUUUUCUAACAGUCGCAAG [Fam3.1 aminoacylation ribozyme variant] | – | – | 2.04 | – | 3.07 | –
AUACACCUAGGUCAUCGGGCG [Fam2.2 aminoacylation ribozyme variant] | 2.86 | 2.8 | – | 2.58 | 11 | 2.18
AUCACCCUGGUCAUCAAGUGA [Fam2.1 aminoacylation ribozyme variant] | 4.8 | 3.75 | – | 3.46 | 14.2 | 2.1
AUUACCCUGGUCCUGGAGUGA [Fam2.1 aminoacylation ribozyme variant] | 3.33 | 3.13 | 2.07 | 2.79 | 10.7 | –
AUUACCCUGGUGAGCGAGUGA [Fam2.1 aminoacylation ribozyme variant] | 3.97 | 3.94 | 2.4 | 3.8 | 22.2 | –
AUUCACCGAGCUCAUCGGGUG [Fam2.2 aminoacylation ribozyme variant] | – | 2.08 | 2.4 | 2.46 | 17.4 | 3.41
AUUCACCUACGUCAUCGGGGG [Fam2.2 aminoacylation ribozyme variant] | – | – | – | 2.68 | 6.05 | 2.01
AUUCACCUAGGACAUCGGGUA [Fam2.2 aminoacylation ribozyme variant] | 2.09 | 2.72 | 2.02 | 2.63 | 7.17 | –

Sequence | self-aminoacylation [1] | self-aminoacylation [2] | self-aminoacylation [3] | self-aminoacylation [4] | self-aminoacylation [5] | self-aminoacylation [6]
AUUCACCUAGGCCAUCGGCUG [Fam2.2 aminoacylation ribozyme variant] | – | 2.27 | – | 2.03 | 10.5 | 2.59
AUUCACCUAGGUCAACGGGCG [Fam2.2 aminoacylation ribozyme variant] | – | 2.85 | 2.59 | 3.24 | 10.4 | –
AUUCACCUAGGUCAUCGCCUG [Fam2.2 aminoacylation ribozyme variant] | 2.11 | – | 2.01 | 3.01 | 8.71 | 2.44
AUUCACCUAUGUCAUGGGGUG [Fam2.2 aminoacylation ribozyme variant] | 2.69 | 2.89 | – | 3.16 | 14.1 | 2.07
AUUCACGUAGGUCAUCGGGUC [Fam2.2 aminoacylation ribozyme variant] | – | 2.19 | – | – | 9.36 | 2.28
AUUCAGCUACGUCAUCGGGUG [Fam2.2 aminoacylation ribozyme variant] | 3.07 | – | – | 2.71 | 10.1 | 2.02
AUUCUCCUAGGUCAUCGGGGG [Fam2.2 aminoacylation ribozyme variant] | 3 | 3.48 | 2.7 | 3.88 | – | 3.29
CCAAACUUCAAGCAAUCGGGC [Fam1B.1 aminoacylation ribozyme variant] | 2.01 | 2.17 | 2.08 | – | – | 2.26
CCACAAUUCAAGCAAUCGGGC [Fam1B.1 aminoacylation ribozyme variant] | 2.04 | 2.14 | 2.22 | – | – | –
CCACAAUUCACGCAAUCGGUC [Fam1B.1 aminoacylation ribozyme variant] | – | – | – | – | – | 2.05
CCACACCUCAAGCAUUCGGUC [Fam1B.1 aminoacylation ribozyme variant] | 2.49 | – | 2.26 | – | 2.12 | 2.54
CCACACGUCAAGCAAUCGCUC [Fam1B.1 aminoacylation ribozyme variant] | – | 2.64 | – | – | – | 2.54
CCACACGUCAAGCAAUCGGUU [Fam1B.1 aminoacylation ribozyme variant] | – | – | – | – | – | 2.28
CCACACUUCAAGCAACCGGGC [Fam1B.1 aminoacylation ribozyme variant] | 4.79 | – | 2.77 | 3.43 | 3.1 | 3.18
CCACACUUCAAGCAAUCGGCC [Fam1B.1 aminoacylation ribozyme variant] | 4.72 | – | – | – | 4.93 | 2.17
CCACACUUCAAUCAAUCGGCC [Fam1B.1 aminoacylation ribozyme variant] | 2.62 | – | – | 2.16 | 2.71 | 2.11
CCACACUUCAGGCAAUCGCUC [Fam1B.1 aminoacylation ribozyme variant] | – | – | 2.5 | 2.71 | 17.5 | 2.04
CCACUCUUCAAGCAAUCGGCC [Fam1B.1 aminoacylation ribozyme variant] | 4.14 | – | – | 2.23 | 4.1 | 2.16
CCAGACUUCAAGCAUUCGGUC [Fam1B.1 aminoacylation ribozyme variant] | – | 2.12 | 2.03 | 2.08 | – | 2.16
CCAGACUUCGAGCAAUCGGUC [Fam1B.1 aminoacylation ribozyme variant] | – | – | – | – | – | 2.09
CCGCACUUCAAGCAAUCGGUU [Fam1B.1 aminoacylation ribozyme variant] | 14.4 | – | – | 2.4 | 13.9 | 2.45
CCGCACUUCAAGCCAUCGGUC [Fam1B.1 aminoacylation ribozyme variant] | 2.01 | – | – | – | 2.13 | 2.26
CUACUGCAAACAUUCGGUCUG [Fam1A.1 aminoacylation ribozyme variant] | – | – | 2.01 | – | 9.39 | –
CUUCACCUAGGUCAUCGGCUG [Fam2.2 aminoacylation ribozyme variant] | 2.25 | – | – | – | 9.39 | 2.27
CUUCACCUAGUUCAUCGGGUG [Fam2.2 aminoacylation ribozyme variant] | 2.53 | 2.54 | 2.15 | 2.87 | – | 2.27
GAGUUGGCUAAUAGUCGCAAG [Fam3.1 aminoacylation ribozyme variant] | 3.02 | 2.04 | 2.02 | – | 2.86 | 2.22
UUUCACCUAGGUCAUCGGGUC [Fam2.2 aminoacylation ribozyme variant] | – | – | – | – | 2.14 | 2.09
